Earlier results on 1 substance are cited in publication PMC2854688.

Values joined by “and” are separate entries in the source; they are usually repeats but may differ in a detail not shown here. Identical values can stand only once.

Data set [1] addresses eRF3 PAM2 peptide PAM2 (Homo sapiens) (UniProt P15170).
Data set [2] addresses eRF3 overlapping PAM2 peptide PAM2 (Homo sapiens) (UniProt P15170).

By Kd is commonly meant the constant that tells how readily two partners part at equilibrium. With “PABPC1 MLLE domain MLLE (from UniProt P11940)”, the Kd in data set [1] was 3.9 µM and 3.1 µM; in data set [2], 1.3 µM.
